# ± gives the uncertainty stated by the source.
# Assay: protein stability index of a GFP-peptide fusion (yeast GPS) (PSI 1-4); higher = more stable; sorted into four equal gates, so the index is relative within each strain
# Procedure, shortened: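 Tiled 17-residue peptides from yeast proteins were fused downstream of GFP on a plasmid that also expresses Cherry, and the pooled library was carried in yeast. Mid-log cultures grown in leucine-free medium were sorted into four equal gates by GFP/Cherry fluorescence ratio. Plasmids from each gate were PCR-amplified and Illumina-sequenced, and reads were assigned to strains by barcodes. Each peptide's protein stability index is the sum, over gates, of the gate's read frequency multiplied by its gate number.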
sequence,measurement,setting,value
KAISVGANTSAAQTLLQ [PRE9],protein stability index,doa10∆,2.74 ± 0.054
same,protein stability index,pdr5∆,2.92 ± 0.052
same,protein stability index,san1∆,2.77 ± 0.053
same,protein stability index,ubr1∆,2.92 ± 0.046
PENITKREASRGFFDIL [MCD1],protein stability index,doa10∆,3.1 ± 0.08
same,protein stability index,pdr5∆,3.01 ± 0.082
same,protein stability index,san1∆,3.13 ± 0.062
same,protein stability index,ubr1∆,3.21 ± 0.058
LLEGLNEKIEKRSDLTG [UBP6],protein stability index,doa10∆,2.89 ± 0.092
same,protein stability index,pdr5∆,3.11 ± 0.063
same,protein stability index,san1∆,3.18 ± 0.081
same,protein stability index,ubr1∆,3.32 ± 0.098
KNRSTIFWGIRLAKSTE [BRR2],protein stability index,doa10∆,3.04 ± 0.29
same,protein stability index,pdr5∆,2.97 ± 0.16
same,protein stability index,ubr1∆,2.95 ± 0.17
VTKQSELNSSEDILEDM [SMC1],protein stability index,doa10∆,3.37 ± 0.065
same,protein stability index,pdr5∆,3.25 ± 0.059
same,protein stability index,san1∆,3.22 ± 0.041
same,protein stability index,ubr1∆,3.18 ± 0.049
ARLDGHDFLFNTIIRDG [RPN14],protein stability index,doa10∆,2.83 ± 0.091
same,protein stability index,pdr5∆,2.95 ± 0.06
same,protein stability index,san1∆,3.32 ± 0.056
same,protein stability index,ubr1∆,2.81 ± 0.044
TAVAFWSWDIAVDNCAI [HRT1],protein stability index,doa10∆,1.33 ± 0.07
same,protein stability index,pdr5∆,1.49 ± 0.067
same,protein stability index,san1∆,1.52 ± 0.12
same,protein stability index,ubr1∆,1.55 ± 0.043
LRSIYHQFHDILEEKTD [NSL1],protein stability index,doa10∆,2.22 ± 0.062
same,protein stability index,pdr5∆,2.07 ± 0.047
same,protein stability index,san1∆,2.18 ± 0.074
same,protein stability index,ubr1∆,2.04 ± 0.04
RRRDFGAPANKRPRRGL [SMD1],protein stability index,doa10∆,2.84 ± 0.094
same,protein stability index,pdr5∆,2.93 ± 0.084
same,protein stability index,san1∆,3.38 ± 0.07
same,protein stability index,ubr1∆,3.29 ± 0.089
AQGVAVQLKRQPAQPRE [RPL21A],protein stability index,doa10∆,1.66 ± 0.088
same,protein stability index,pdr5∆,1.22 ± 0.081
same,protein stability index,san1∆,1.61 ± 0.084
same,protein stability index,ubr1∆,1.88 ± 0.07
LVLLNGRLRNKSHKQTI [RPP1],protein stability index,doa10∆,2.65 ± 0.088
same,protein stability index,pdr5∆,2.85 ± 0.059
same,protein stability index,san1∆,2.98 ± 0.047
same,protein stability index,ubr1∆,2.97 ± 0.061
VVEKEKIESLAGGGESD [UBP6],protein stability index,doa10∆,3.35 ± 0.2
same,protein stability index,pdr5∆,2.84 ± 0.24
same,protein stability index,san1∆,2.89 ± 0.19
same,protein stability index,ubr1∆,3.34 ± 0.15
LLVKLSKRLPLRFPEHT [BRR2],protein stability index,doa10∆,2.3 ± 0.063
same,protein stability index,pdr5∆,2.75 ± 0.07
same,protein stability index,san1∆,2.25 ± 0.17
same,protein stability index,ubr1∆,2.42 ± 0.062
KEYQCSAVIIDEFKDIT [YIL149C/MLP2],protein stability index,doa10∆,2.46 ± 0.065
same,protein stability index,pdr5∆,2.75 ± 0.065
same,protein stability index,san1∆,2.35 ± 0.055
same,protein stability index,ubr1∆,2.88 ± 0.044
NNRMGSYDCTGVNELAP [POP1],protein stability index,doa10∆,2.63 ± 0.099
same,protein stability index,pdr5∆,2.42 ± 0.076
same,protein stability index,san1∆,2.74 ± 0.085
same,protein stability index,ubr1∆,2.79 ± 0.059
INHKINNKITQLIAKNV [SIR3],protein stability index,doa10∆,1.58 ± 0.063
same,protein stability index,pdr5∆,1.7 ± 0.062
same,protein stability index,san1∆,2.22 ± 0.077
same,protein stability index,ubr1∆,2.16 ± 0.064
HNKLIQFGNACISLSGV [SSN2],protein stability index,doa10∆,2.45 ± 0.11
same,protein stability index,pdr5∆,2.84 ± 0.14
same,protein stability index,san1∆,2.73 ± 0.075
same,protein stability index,ubr1∆,2.67 ± 0.13
GLFGANSNSNSGSLFGS [YGL172W/NUP49],protein stability index,doa10∆,1.31 ± 0.13
same,protein stability index,pdr5∆,1.7 ± 0.14
same,protein stability index,san1∆,1.05 ± 0.25
same,protein stability index,ubr1∆,1.41 ± 0.21
VLPDADVKLLHSQFMKD [YJL039C/NUP192],protein stability index,pdr5∆,2.21 ± 0.12
same,protein stability index,ubr1∆,2.27 ± 0.25
TGSIRHRLKLCKSLISE [CSE2],protein stability index,doa10∆,3.49 ± 0.29
VNQDKANNASQITPTVP [SNF12],protein stability index,doa10∆,3.03 ± 0.083
same,protein stability index,pdr5∆,3.19 ± 0.081
same,protein stability index,san1∆,3.11 ± 0.063
same,protein stability index,ubr1∆,3.18 ± 0.054
DLTRVYKAISAQADKQD [FAS2],protein stability index,doa10∆,1.54 ± 0.054
same,protein stability index,pdr5∆,1.72 ± 0.049
same,protein stability index,san1∆,1.74 ± 0.1
same,protein stability index,ubr1∆,1.75 ± 0.044
VNDVEELGEIIDEDIGN [RMP1],protein stability index,doa10∆,3.41 ± 0.15
same,protein stability index,san1∆,2.98 ± 0.2
same,protein stability index,ubr1∆,3.19 ± 0.28
MTLKEMYQMITMGGNAE [SMC4],protein stability index,doa10∆,2.72 ± 0.065
same,protein stability index,pdr5∆,2.41 ± 0.056
same,protein stability index,san1∆,2.44 ± 0.058
same,protein stability index,ubr1∆,2.77 ± 0.068
LVSMRYPEDKKTQQNEK [RPN3],protein stability index,san1∆,3.24 ± 0.039
same,protein stability index,ubr1∆,3.12 ± 0.12
SFTQGELNDLKWGRNQP [YMR129W/POM152],protein stability index,doa10∆,3.04 ± 0.15
same,protein stability index,pdr5∆,2.84 ± 0.09
same,protein stability index,san1∆,3.14 ± 0.091
same,protein stability index,ubr1∆,2.78 ± 0.074
LVQLKKFSDLKFILQIL [YML103C/NUP188],protein stability index,doa10∆,2.15 ± 0.08
same,protein stability index,pdr5∆,1.91 ± 0.075
same,protein stability index,san1∆,2.34 ± 0.11
same,protein stability index,ubr1∆,1.44 ± 0.059
MFNPLHESYCLPMDTNL [YMR129W/POM152],protein stability index,doa10∆,2.39 ± 0.059
same,protein stability index,pdr5∆,2.83 ± 0.055
same,protein stability index,san1∆,2.75 ± 0.058
same,protein stability index,ubr1∆,2.36 ± 0.056
NIKTSEWDLYPQGFSSV [REC8],protein stability index,doa10∆,2.91 ± 0.26
same,protein stability index,pdr5∆,2.82 ± 0.2
TTTKIIDSTDHIRKASS [LRP1],protein stability index,doa10∆,2.19 ± 0.048
same,protein stability index,pdr5∆,2.07 ± 0.039
same,protein stability index,san1∆,1.64 ± 0.066
same,protein stability index,ubr1∆,2.32 ± 0.038
EANFDLINIDTSIANAF [RPC40],protein stability index,doa10∆,2.78 ± 0.049
same,protein stability index,pdr5∆,3.27 ± 0.057
same,protein stability index,san1∆,3 ± 0.05
same,protein stability index,ubr1∆,3.07 ± 0.043
AAGALFVSSGFDTSIKL [RPN14],protein stability index,doa10∆,2.41 ± 0.052
same,protein stability index,pdr5∆,2.52 ± 0.045
same,protein stability index,san1∆,2.18 ± 0.064
same,protein stability index,ubr1∆,2.49 ± 0.035
SLCTVWKPNPSYDVENV [SRB5],protein stability index,doa10∆,2.47 ± 0.097
same,protein stability index,pdr5∆,2.03 ± 0.098
same,protein stability index,san1∆,2.08 ± 0.19
same,protein stability index,ubr1∆,1.84 ± 0.082
GIFNLLNTLFNPVTLNE [NUT1],protein stability index,doa10∆,2.52 ± 0.051
same,protein stability index,pdr5∆,1.93 ± 0.052
same,protein stability index,san1∆,1.87 ± 0.075
same,protein stability index,ubr1∆,1.92 ± 0.048
FKYVSVRYEEKRELKQL [BRR2],protein stability index,doa10∆,2.63 ± 0.068
same,protein stability index,pdr5∆,2.93 ± 0.056
same,protein stability index,san1∆,2.93 ± 0.067
same,protein stability index,ubr1∆,3.13 ± 0.05
QIAKFVVGLGERVSPTD [RPT1],protein stability index,doa10∆,2.62 ± 0.099
same,protein stability index,pdr5∆,1.33 ± 0.04
same,protein stability index,san1∆,2.05 ± 0.13
same,protein stability index,ubr1∆,1.38 ± 0.051
CESCSTILCTPTGGKAK [RPS27A],protein stability index,doa10∆,1.93 ± 0.046
same,protein stability index,pdr5∆,2.32 ± 0.046
same,protein stability index,san1∆,2.1 ± 0.055
same,protein stability index,ubr1∆,2.18 ± 0.037
YVPTRNTFNYDVKISND [RPN4],protein stability index,doa10∆,1.85 ± 0.068
same,protein stability index,pdr5∆,2.3 ± 0.065
same,protein stability index,san1∆,2.29 ± 0.078
same,protein stability index,ubr1∆,2.25 ± 0.056
KLITTYISLLKLQGLYE [YDL116W/NUP84],protein stability index,doa10∆,2.23 ± 0.059
same,protein stability index,pdr5∆,1.82 ± 0.061
same,protein stability index,san1∆,1.66 ± 0.072
same,protein stability index,ubr1∆,1.72 ± 0.052
QGNPKKRPGKLSDYIPG [CYT1],protein stability index,doa10∆,3.17 ± 0.066
same,protein stability index,pdr5∆,3.24 ± 0.067
same,protein stability index,san1∆,3.23 ± 0.044
same,protein stability index,ubr1∆,3.17 ± 0.032
RQQYYSGVQVGGVGSMG [SNF6],protein stability index,doa10∆,2.08 ± 0.068
same,protein stability index,pdr5∆,2.44 ± 0.11
same,protein stability index,san1∆,2.19 ± 0.094
same,protein stability index,ubr1∆,2.24 ± 0.056
RHMVDDKIHARARGPMQ [RPB2],protein stability index,doa10∆,3.38 ± 0.17
same,protein stability index,pdr5∆,3.48 ± 0.13
same,protein stability index,san1∆,3.27 ± 0.16
same,protein stability index,ubr1∆,2.7 ± 0.16
MADLQKQENSSRFTNVS [YMR153W/NUP53],protein stability index,doa10∆,3.23 ± 0.15
same,protein stability index,pdr5∆,3.1 ± 0.14
same,protein stability index,san1∆,2.36 ± 0.24
same,protein stability index,ubr1∆,3.31 ± 0.12
IYATFLNESDCLEACSF [YDL116W/NUP84],protein stability index,doa10∆,2.56 ± 0.091
same,protein stability index,pdr5∆,2.85 ± 0.087
same,protein stability index,san1∆,2.6 ± 0.13
same,protein stability index,ubr1∆,2.59 ± 0.057
QVRKKQIETINFLRLPA [YDL116W/NUP84],protein stability index,doa10∆,3.07 ± 0.11
same,protein stability index,pdr5∆,2.89 ± 0.097
same,protein stability index,san1∆,2.86 ± 0.07
same,protein stability index,ubr1∆,2.81 ± 0.11
LKSLNDIETQLCSMLQE [MED11],protein stability index,doa10∆,2.54 ± 0.084
same,protein stability index,pdr5∆,2.91 ± 0.079
same,protein stability index,san1∆,2.73 ± 0.11
same,protein stability index,ubr1∆,3 ± 0.059
QQQQQFRHHVQIQQQQQ [SNF5],protein stability index,doa10∆,1.3 ± 0.033
same,protein stability index,pdr5∆,1.76 ± 0.036
same,protein stability index,san1∆,1.45 ± 0.086
same,protein stability index,ubr1∆,1.32 ± 0.025
PDTSNEICDLAYQYVRA [SRB2],protein stability index,doa10∆,2.83 ± 0.046
same,protein stability index,pdr5∆,2.93 ± 0.04
same,protein stability index,san1∆,2.95 ± 0.046
same,protein stability index,ubr1∆,3 ± 0.041
KNIQSKDSYINANTIET [FAS2],protein stability index,doa10∆,2.9 ± 0.05
same,protein stability index,pdr5∆,2.88 ± 0.043
same,protein stability index,san1∆,2.9 ± 0.038
same,protein stability index,ubr1∆,2.94 ± 0.052
NTVDGDLLKLVHLSNGY [FAS1],protein stability index,doa10∆,2.86 ± 0.07
same,protein stability index,pdr5∆,2.52 ± 0.056
same,protein stability index,san1∆,2.31 ± 0.076
same,protein stability index,ubr1∆,2.46 ± 0.064
RKGGPATAEKLPNIYPS [RPT2],protein stability index,doa10∆,2.89 ± 0.13
same,protein stability index,pdr5∆,3.54 ± 0.25
same,protein stability index,san1∆,2.81 ± 0.13
RGYTCQFVDMVLPNTAL [FAS1],protein stability index,doa10∆,1.75 ± 0.075
same,protein stability index,pdr5∆,1.88 ± 0.048
same,protein stability index,san1∆,1.32 ± 0.089
same,protein stability index,ubr1∆,1.53 ± 0.05
NESEKDQWLEEYKKHFP [UBP6],protein stability index,doa10∆,3.31 ± 0.16
same,protein stability index,pdr5∆,3.6 ± 0.19
same,protein stability index,ubr1∆,3.32 ± 0.11
VPYVLMGQIATFIYFAY [COB],protein stability index,doa10∆,1.38 ± 0.1
same,protein stability index,pdr5∆,1.23 ± 0.1
same,protein stability index,san1∆,1.17 ± 0.16
same,protein stability index,ubr1∆,1.28 ± 0.078
